According to the supplement of paper PMC10126150:
± gives the standard deviation of the averaged measurements.

Tested on: ATP
Experiment: switch fluorescence ratio, 500 uM ATP over buffer (Cy3 cluster intensity, sum of 5 cycles each) (fold (ratio)); higher = stronger signal-on switching upon ATP binding; sequences stand for … in TCGTCGGCAGCGTCAGATGTGTATAAGAGACAGTTTTTTTTTTTTTTTTTTTTTTTTT…TC
Details: aptamer strand: ATP DNA aptamer (quencher-CACCTGGGGGAGTATTGCGGAGGAAGG + anchor), 100 nM annealed; ATP concentration: 500 uM
Procedure, shortened: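 Clusters with intensities outside 100-1000 RFU were excluded. The remaining Cy3-labelled switching-strand clusters on a modified Illumina MiSeq flow-cell had been annealed to 100 nM quencher-labelled ATP aptamer and imaged in selection buffer, then after 15 min with 500 uM ATP at 22 °C, for five cycles separated by NaOH stripping and re-annealing. The fluorescence ratio, averaged per switch-domain sequence, is each cluster's summed target-cycle Cy3 intensity over its summed buffer-cycle Cy3 intensity.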
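Also: ATP exposure 15 min at 22 °C before imaging.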

| Sequence | switch fluorescence ratio |
| --- | --- |
| CTAGGTTGCA | 0.9871 ± 0.0052 |
| TTTTGGGCGT | 1 ± 0.062 |
| CTTGGCTGTT | 0.986 ± 0.018 |
| GTTAGAGGGG | 1.01 ± 0.033 |
| GAGGGGTTG | 0.988 ± 0.034 |
| TCTTAGCGCG | 1.07 ± 0.041 |
| TAGATTTCTG | 0.989 ± 0.025 |
| GGGCCGGAAA | 1.01 ± 0.049 |
| ATCACGGGAT | 1.015 ± 0.0039 |
| TTGACGGGGA | 1.12 ± 0.17 |
| TGTGTTTCAA | 1.03 ± 0.013 |
| TTATTCTGCT | 1.03 ± 0.03 |
| GAGAAACCGG | 1.03 ± 0.019 |
| AGAAAATAGT | 1.03 ± 0.032 |
| TTTTAATTT | 0.997 ± 0.042 |
| TATTCGGTCG | 0.993 ± 0.025 |
| TGGGTAAAGG | 0.956 ± 0.015 |
| AGTATTGTTT | 1.01 ± 0.02 |
| TATTTTTTTG | 1.01 ± 0.018 |
| TTCATTTCTG | 1.02 ± 0.039 |
| TCGGCATTAA | 1.37 ± 0.1 |
| CTGTAATGTT | 0.992 ± 0.011 |
| TTTGGAGATG | 1.02 ± 0.023 |

| Sequence | switch fluorescence ratio |
| --- | --- |
| TCAATCATTT | 0.997 ± 0.053 |
| CTGGGGGGCT | 1.02 ± 0.021 |
| TGTTGGGTTG | 0.999 ± 0.015 |
| TTGGTTTGCG | 0.962 ± 0.017 |
| ATTAAGCCAC | 1.12 ± 0.053 |
| ATTAGGTCTG | 0.941 ± 0.044 |
| AGGGTAGGTC | 1.06 ± 0.087 |
| GAAATTCCGC | 1.27 ± 0.088 |
| TGGGCGGGAG | 0.993 ± 0.039 |
| GGAAATGGTG | 1.1 ± 0.11 |
| ATTTTCCAGG | 1.49 ± 0.26 |
| AATAGGAGAG | 0.987 ± 0.0099 |
| TAGGGGAGGA | 0.993 ± 0.035 |
| ACGAGTTCAT | 0.999 ± 0.017 |
| AGGCGGAACT | 1.02 ± 0.026 |
| AAATGTTCGT | 1.011 ± 0.0058 |
| CAAAGGTGCA | 1.09 ± 0.032 |
| CTTAGCGGGG | 0.9827 ± 0.0064 |
| AATTTTCAGA | 1.03 ± 0.019 |
| ATAAGCGCAG | 1.008 ± 7e-05 |
| GGCTTCGGGG | 0.98028 ± 0.00081 |
| TTGACAAGGG | 0.997 ± 0.015 |
| TATTGTCTAC | 0.9901 ± 0.0019 |

| Sequence | switch fluorescence ratio |
| --- | --- |
| ATAGGAGGGT | 0.989 ± 0.014 |
| AAATCCGAAT | 1.01 ± 0.069 |
| TGTTTGTGCT | 0.983 ± 0.027 |
| GGTACTGGAC | 1.087 ± 0.0021 |
| ATTCTGGGGT | 1.04 ± 0.07 |
| GATGTTGTAC | 1.09 ± 0.079 |
| GGCTTGGAGC | 0.996 ± 0.025 |
| TAGGCATTGG | 0.995 ± 0.014 |
| GATTATTCGT | 0.99 ± 0.028 |
| TTTATAGCT | 1.02 ± 0.027 |
| TGGGGGGATG | 0.996 ± 0.011 |
| ATCCTCTCGG | 1.05 ± 0.017 |
| GAAACCGGAG | 1.567 ± 0.015 |
| GTTGTTTACC | 1.02 ± 0.021 |
| TATATTAGGT | 1.13 ± 0.1 |
| TAGCTAAATT | 0.99 ± 0.012 |
| CCGTGGCGTG | 1.01 ± 0.033 |
| GAAGGTCGGC | 0.994 ± 0.036 |
| TATTTGCATC | 1.01 ± 0.018 |
| TAACGGCCTC | 1.04 ± 0.023 |
| TCAAGAATGG | 1 ± 0.059 |
| CAATAATGTA | 1.03 ± 0.051 |
| TGGCAATATT | 2.31 ± 1.6 |

| Sequence | switch fluorescence ratio |
| --- | --- |
| TTTGAGAGTA | 0.96 ± 0.028 |
| GCGAGATCTT | 0.968 ± 0.015 |
| CCGCCATAAG | 3.42 ± 0.68 |
| GTTTTATGG | 0.982 ± 0.019 |
| TTTTGTGGCA | 0.987 ± 0.014 |
| AGGGGGGTAC | 0.991 ± 0.041 |
| GGGTACTTTT | 1 ± 0.0091 |
| ATAGATGTTG | 0.9812 ± 0.0069 |
| TAACATGTTC | 0.995 ± 0.031 |
| TGCTCTTTGG | 1 ± 0.025 |
| AGCTCGCGTC | 0.981 ± 0.021 |
| GTATTGTTTT | 1.14 ± 0.16 |
| GGGACCGAAC | 1.13 ± 0.029 |
| GGATGCAGGA | 1.04 ± 0.042 |
| ACGGAAGTTA | 1.02 ± 0.025 |
| AGCGCGATTC | 1.99 ± 0.13 |
| TTACTCGCTG | 1.07 ± 0.027 |
| GGAGAGTGGT | 1.02 ± 0.023 |
| TTTTCTCTGT | 0.967 ± 0.023 |
| GGGGGATCGG | 1.01 ± 0.022 |
| GCTCATGAGC | 1.007 ± 0.0093 |
| TGCACTGTTT | 1.01 ± 0.038 |
| AAAGTGTTTT | 0.995 ± 0.051 |

| Sequence | switch fluorescence ratio |
| --- | --- |
| GGGAAGTGTG | 0.979 ± 0.024 |
| TATTGAACGA | 1 ± 0.011 |
| GATAATTCTG | 1 ± 0.024 |
| TTAATTGGGT | 1 ± 0.028 |
| ATGAGGGTCT | 0.999 ± 0.044 |
| AAATTCGGCG | 1.01 ± 0.023 |
| TTTCGTTTTT | 0.991 ± 0.038 |
| TTTGGCTTCT | 1.04 ± 0.073 |
| TCGACGGAGT | 1.114 ± 0.00049 |
| CATGTAATTT | 0.966 ± 0.034 |
| CCGGGGTCGT | 1.02 ± 0.012 |
| CGAGGAAGGG | 1.01 ± 0.021 |
| ATTATGGGGT | 1 ± 0.017 |
| TTCCGGAGGG | 1.02 ± 0.063 |
| TGATTTGCGA | 0.987 ± 0.02 |
| CTGATTGTAC | 1.08 ± 0.069 |
| TTAAAAAACG | 1.04 ± 0.052 |
| TATCCCTGTT | 0.976 ± 0.013 |
| AAGGCCTTCT | 0.994 ± 0.011 |
| TGATAGATGC | 1.03 ± 0.025 |
| TTACGGGTGG | 1.01 ± 0.044 |
| TAGGTATGCG | 1.18 ± 0.037 |
| AGGGGCGTGC | 0.977 ± 0.015 |

| Sequence | switch fluorescence ratio |
| --- | --- |
| AACGATTTTT | 1.007 ± 0.0084 |
| TGGTCGTGTG | 1 ± 0.027 |
| TAGTATGGGA | 0.968 ± 0.013 |
| TTAAGTGAGG | 1.02 ± 0.016 |
| TTTCCATATT | 0.984 ± 0.019 |
| TGCCATCCGA | 1.09 ± 0.054 |
| TCTTGTGG | 0.982 ± 0.012 |
| TAGGCAACGA | 1.04 ± 0.063 |
| GGTAAAAGTC | 1.01 ± 0.012 |
| CGGGTATTTA | 1.01 ± 0.025 |
| TTCGTAGTGG | 1 ± 0.013 |
| AGTGACGCGT | 1.007 ± 0.0033 |
| GGGGCTTTTT | 1 ± 0.036 |
| GTTGAGGGGA | 1.01 ± 0.058 |
| ATGGGAGCTG | 0.9831 ± 0.0037 |
| TAGTTTCTGG | 0.965 ± 0.02 |
| AGGAGTTTTT | 0.98 ± 0.03 |
| GCTGATATCC | 1.01 ± 0.048 |
| GCACGGGACT | 1.184 ± 0.011 |
| ATTTTAGTGT | 0.968 ± 0.029 |
| TACGGTGGTG | 0.987 ± 0.018 |
| TTTTCCTGAT | 1 ± 0.017 |
| TTAAGAATGG | 1.01 ± 0.014 |

| Sequence | switch fluorescence ratio |
| --- | --- |
| GACATGGGTT | 0.983 ± 0.015 |
| AGTGGCTATC | 1.01 ± 0.018 |
| TTAGGTTTGC | 1 ± 0.032 |
| GTTATAAAGT | 0.99 ± 0.024 |
| AAGGGCGTGG | 0.982 ± 0.02 |
| TTCCCCAGGG | 3.63 ± 1.6 |
| CATGGTGGGA | 0.969 ± 0.017 |
| TGATTTTCGT | 1 ± 0.044 |
| TGTGGGATCG | 0.97 ± 0.02 |
| CCCATCCGGT | 1.12 ± 0.023 |
| TTGGGACTTT | 1.03 ± 0.022 |
| TGCCTCTAGA | 1.1 ± 0.044 |
| TTGGCCGTGT | 1.02 ± 0.028 |
| TTTAAATCGG | 0.979 ± 0.04 |
| ATATAGGGGC | 1.02 ± 0.046 |
| TTTCATACCT | 1.23 ± 0.14 |
| CGTTTTTATG | 1.03 ± 0.04 |
| CAGTGAGGTA | 0.984 ± 0.023 |
| CGTCATGGGT | 1 ± 0.035 |
